B1: Peptide complex Dimer Structure No. 8 (peptide)
peptide: {CH2CO}-WWVDVQDDLY[Bph]VDCG
modifications: thioether N-14; also: dimer: C-termini joined by PEG12c-K-PEG12c linker
B2: Peptide complex Dimer Structure No. 6 (peptide)
peptide: {CH2CO}-WWVDV[F4COO]DDLYFVDCG
modifications: thioether N-14; also: dimer: C-termini joined by PEG12c-K-PEG12c linker
B3: Peptide complex Dimer Structure No. 9 (peptide)
peptide: {CH2CO}-WWVDVQDDLYF[hPhe]DCG
modifications: thioether N-14; also: dimer: C-termini joined by PEG12c-K-PEG12c linker
B4: Peptide complex Dimer Structure No. 11 (peptide)
peptide: {CH2CO}-WWVDVQDDLYFVSCG
modifications: thioether N-14; also: dimer: Gly15 C-terminus joined to second copy by PEG12c-K-PEG12c
B5: Peptide complex Dimer Structure No. 12 (peptide)
peptide: {CH2CO}-WWVDVQDDLYFVDCG
modifications: thioether N-14; also: dimer: Gly15 C-terminus joined to second copy by K-cPEG17c-K
B6: Peptide complex Dimer Structure No. 4 (peptide)
peptide: {CH2CO}-WWVDV[hPhe]DDLYFVDCG
modifications: thioether N-14; also: dimer: C-terminus joined to second copy by PEG12c-K-PEG12c
B7: Peptide complex Dimer Structure No. 10 (peptide)
peptide: {CH2CO}-WWVDVQDDLYFVACG
modifications: thioether N-14; also: dimer: Gly15 C-terminus joined to second copy by PEG12c-K-PEG12c
B8: Peptide complex Dimer Structure No. 7 (peptide)
peptide: {CH2CO}-WWVDVQGDLYFVDCG
modifications: thioether N-14; also: dimer: C-termini joined by PEG12c-K-PEG12c linker
B9: Peptide complex Dimer Structure No. 3 (peptide)
peptide: {CH2CO}-WWVDVWDDLYFVDCG
modifications: thioether N-14; also: dimer joined at Gly15 C-termini by PEG12c-K-PEG12c
B10: Peptide complex Dimer Structure No. 34 (peptide)
peptide: {CH2CO}-WW[Tle]DVKDDLYF[hTyr]FCG-NH2
modifications: thioether N-14; also: homodimer: Lys6 joined to Lys6 of second copy by cPEG17c (Linker Structure No. 4)
B11: Peptide complex Dimer Structure No. 39 (peptide)
peptide: {CH2CO}-WWVDVKDDLY[Yph]V[hArg]CG-NH2
modifications: thioether N-14; reading uncertain; also: homodimer: Lys6 joined to Lys6 of second copy by OCOPEG13OCO (Linker Structure No. 5)
B12: Peptide complex Dimer Structure No. 26 (peptide)
peptide: {CH2CO}-WW[Tle]QVKDDLYF[hTyr]DCG-NH2
modifications: thioether N-14; not fully specified (residue 6); also: homodimer: Lys6 joined to Lys6 of second copy by cPEG17c (Linker Structure No. 4)
B13: Peptide complex Dimer Structure No. 28 (peptide)
peptide: {CH2CO}-WW[Tle]D[Chg]KDDLYF[hTyr]DCG-NH2
modifications: thioether N-14; not fully specified (residue 6); also: homodimer: Lys6 joined to Lys6 of second copy by cPEG17c (Linker Structure No. 4)
B14: Peptide complex Dimer Structure No. 30 (peptide)
peptide: {CH2CO}-WW[Tle]DVKDDLY[F4C][hTyr]DCG-NH2
modifications: thioether N-14; not fully specified (residue 6); reading uncertain; also: homodimer: Lys6 joined to Lys6 of second copy by cPEG17c (Linker Structure No. 4)
B15: Peptide complex Dimer Structure No. 37 (peptide)
peptide: {CH2CO}-WWVDVKGVNYF[hTyr]DCG-NH2
modifications: thioether N-14; also: homodimer: Lys6 joined to Lys6 of second copy by OCOPEG13OCO (Linker Structure No. 5)
B16: Peptide complex Dimer Structure No. 35 (peptide)
peptide: {CH2CO}-WW[Tle]DVKDDLYF[hTyr][F4aao]CG-NH2
modifications: thioether N-14; reading uncertain; also: homodimer: Lys6 joined to Lys6 of second copy by cPEG17c (Linker Structure No. 4)
B17: Peptide complex Dimer Structure No. 36 (peptide)
peptide: {CH2CO}-WW[Tle]DV[Ahp′]DDLYF[hTyr]DCG
modifications: thioether N-14; not fully specified (C-terminus); reading uncertain; also: dimer: Gly15 C-terminus joined to second copy by PEG12c-K-PEG12c (Linker Structure No. 1)
B18: Peptide complex Dimer Structure No. 54 (peptide)
peptide: {CH2CO}-WW[Tle]DVKDD[Atb]Y[F4G][hTyr][Hyp]CG-NH2
modifications: thioether N-14; reading uncertain; also: dimer: Lys6 joined to Lys6 of second copy by OCOPEG13OCO (Linker Structure No. 5)
B19: Peptide complex Dimer Structure No. 40 (peptide)
peptide: {CH2CO}-WW[hTyr]DVKDDLY[F4G]VDCG-NH2
modifications: thioether N-14; also: homodimer: Lys6 joined to Lys6 of second copy by OCOPEG13OCO (Linker Structure No. 5)
B20: Peptide complex Dimer Structure No. 38 (peptide)
peptide: {CH2CO}-WWV[Met(O2)]VKDDLYF[hTyr]DCG-NH2
modifications: thioether N-14; also: homodimer: Lys6 joined to Lys6 of second copy by OCOPEG13OCO (Linker Structure No. 5)
B21: Peptide complex Dimer Structure No. 32 (peptide)
peptide: {CH2CO}-WW[Tle]DVK(CO(CH2)2(OCH2CH2)17CO)DDLYF[H4Py]DCG-NH2
modifications: thioether N-14; reading uncertain; also: dimer joined at Lys6 side chains by cPEG17c
B22: Peptide complex Dimer Structure No. 44 (peptide)
peptide: {CH2CO}-WW[Tle]DVKDDLYF[hTyr]DCG-NH2
modifications: thioether N-14; also: homodimer: Lys6 joined to Lys6 of second copy by cPEG17c (Linker Structure No. 4)
B23: Peptide complex Dimer Structure No. 50 (peptide)
peptide: {CH2CO}-WWVDVKDDLYFVDCG-NH2
modifications: thioether N-14; also: homodimer: Lys6 joined to Lys6 of second copy by OCOPEG17OCO (Linker Structure No. 6)
B24: Peptide complex Dimer Structure No. 56 (peptide)
peptide: {CH2CO}-WW[hTyr]DVKDD[Atb]Y[F4G]VDCG-NH2
modifications: thioether N-14; reading uncertain; also: dimer: Lys6 joined to Lys6 of second copy by OCOPEG13OCO (Linker Structure No. 5)
B25: Peptide complex Dimer Structure No. 48 (peptide)
peptide: {CH2CO}-WW[Tle]DVKDD[Atb]YF[hTyr]DCG-NH2
modifications: thioether N-14; reading uncertain; also: homodimer: Lys6 joined to Lys6 of second copy by cPEG17c (Linker Structure No. 4)
B26: Peptide complex Dimer Structure No. 55 (peptide)
peptide: {CH2CO}-WW[Tle]DVKDD[Atb]Y[F4G][hTyr]DCG-NH2
modifications: thioether N-14; reading uncertain; also: dimer: Lys6 joined to Lys6 of second copy by OCOPEG13OCO (Linker Structure No. 5)
B27: Peptide complex Dimer Structure No. 57 (peptide)
peptide: {CH2CO}-WW[hTyr]DVKDD[Atb]Y[F4G][hTyr]DCG-NH2
modifications: thioether N-14; reading uncertain; also: dimer: Lys6 joined to Lys6 of second copy by OCOPEG13OCO (Linker Structure No. 5)
B28: Peptide complex Dimer Structure No. 41 (peptide)
peptide: {CH2CO}-WWVDVKDDLY[F4G][hTyr][Hyp]CG-NH2
modifications: thioether N-14; also: homodimer: Lys6 joined to Lys6 of second copy by OCOPEG13OCO (Linker Structure No. 5)

This is an account of results in EP4748847A1, “PEPTIDE COMPLEX HAVING VEGFR -2 AGONIST ACTIVITY” (Peptidream Inc, priority 2023, dated 2025).

*1 amine or outer side, *2 acyl side, *3 side chain or, on linkers, in order; H or OH if unused. Bridges are numbered along the chain shown (N, C = ends). Primed or numbered codes have the meaning given here. Where no end group is shown, it is not given here. [ ]: non-standard residue; d: D form. CO(CH2)2(OCH2CH2)17CO = O=C(CCOCCOCCOCCOCCOCCOCCOCCOCCOCCOCCOCCOCCOCCOCCOCCOCCOCCC(=O)[*:2])[*:1]; Met(O2) = CS(=O)(=O)CC[C@H](N)C(=O)O; hTyr = N[C@@H](CCc1ccc(O)cc1)C(=O)O; Hyp = O=C(O)[C@@H]1C[C@@H](O)CN1; hArg = N=C(N)NCCCC[C@H](N)C(=O)O; hPhe = N[C@@H](CCc1ccccc1)C(=O)O; Chg = N[C@H](C(=O)O)C1CCCCC1; Tle = CC(C)(C)[C@H](N)C(=O)O; F4aao = not defined here; Ahp′ = not defined here; H4Py = not defined here; Atb = not defined here; F4C = not defined here; Yph = not defined here

T1 sequence (P35968 20-1356): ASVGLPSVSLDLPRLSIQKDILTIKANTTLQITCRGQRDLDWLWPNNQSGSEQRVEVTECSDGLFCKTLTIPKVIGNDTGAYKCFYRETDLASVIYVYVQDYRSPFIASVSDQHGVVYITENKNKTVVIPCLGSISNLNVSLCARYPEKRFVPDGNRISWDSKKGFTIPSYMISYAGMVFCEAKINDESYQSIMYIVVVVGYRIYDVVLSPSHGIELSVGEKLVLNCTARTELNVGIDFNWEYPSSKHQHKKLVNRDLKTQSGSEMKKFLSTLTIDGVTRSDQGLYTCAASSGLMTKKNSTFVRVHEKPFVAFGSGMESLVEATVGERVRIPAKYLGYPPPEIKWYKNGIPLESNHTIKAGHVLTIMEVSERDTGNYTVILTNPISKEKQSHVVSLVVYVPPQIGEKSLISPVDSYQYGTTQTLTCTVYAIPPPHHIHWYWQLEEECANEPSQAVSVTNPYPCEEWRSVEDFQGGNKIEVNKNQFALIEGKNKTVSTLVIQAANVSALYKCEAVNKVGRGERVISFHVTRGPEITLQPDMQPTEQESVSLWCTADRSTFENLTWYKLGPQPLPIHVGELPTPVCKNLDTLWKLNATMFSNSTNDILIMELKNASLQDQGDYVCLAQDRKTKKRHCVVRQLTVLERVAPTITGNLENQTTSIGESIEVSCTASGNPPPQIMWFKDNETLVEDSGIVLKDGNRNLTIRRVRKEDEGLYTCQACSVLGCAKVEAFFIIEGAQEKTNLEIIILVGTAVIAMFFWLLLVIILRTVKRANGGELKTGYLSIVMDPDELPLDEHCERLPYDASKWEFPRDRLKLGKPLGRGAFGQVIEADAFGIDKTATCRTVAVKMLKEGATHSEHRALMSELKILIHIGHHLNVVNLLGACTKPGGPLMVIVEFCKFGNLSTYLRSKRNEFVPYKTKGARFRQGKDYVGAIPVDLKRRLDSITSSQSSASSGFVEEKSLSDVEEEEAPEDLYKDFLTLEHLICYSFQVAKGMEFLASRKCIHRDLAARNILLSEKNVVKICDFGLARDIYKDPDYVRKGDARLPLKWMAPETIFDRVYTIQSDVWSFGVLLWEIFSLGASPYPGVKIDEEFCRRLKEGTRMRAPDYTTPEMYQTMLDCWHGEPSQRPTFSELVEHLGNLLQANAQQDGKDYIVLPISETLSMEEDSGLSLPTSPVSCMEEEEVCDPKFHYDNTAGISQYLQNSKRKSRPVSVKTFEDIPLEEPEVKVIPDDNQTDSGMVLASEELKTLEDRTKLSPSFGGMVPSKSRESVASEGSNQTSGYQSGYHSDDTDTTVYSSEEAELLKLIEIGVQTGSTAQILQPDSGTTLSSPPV

The first assay addresses T1, VEGFR-2 (human, UniProt P35968 20-1356). Description: cell-based or functional assay.
With B1, the “pERK Assay Results (AlphaLISA p-Erk1/2, HUVEC)” value is under 50 % activity at 100 nM.

For the molecule B2, the “pERK Assay Results (AlphaLISA p-Erk1/2, HUVEC)” value is at least 50 % activity at 100 nM.

For the molecule B3, the “pERK Assay Results (AlphaLISA p-Erk1/2, HUVEC)” value is under 50 % activity at 100 nM.

Regarding B4, the “pERK Assay Results (AlphaLISA p-Erk1/2, HUVEC)” value is under 50 % activity at 100 nM.

For the molecule B5, the “pERK Assay Results (AlphaLISA p-Erk1/2, HUVEC)” value is under 50 % activity at 100 nM.

Take B6: the “pERK Assay Results (AlphaLISA p-Erk1/2, HUVEC)” value is at least 50 % activity at 10 nM.

As for B7, the “pERK Assay Results (AlphaLISA p-Erk1/2, HUVEC)” value was under 50 % activity at 100 nM.

Take B8: the “pERK Assay Results (AlphaLISA p-Erk1/2, HUVEC)” value was at least 50 % activity at 100 nM.

Consider B9, for which the “pERK Assay Results (AlphaLISA p-Erk1/2, HUVEC)” value was at least 50 % activity at 10 nM.

A further assay concerns the target T1, VEGFR-2. Description: cell-based or functional assay. The source holds these as a separate data set.
On to B10, for which the “pERK Assay Results (AlphaLISA p-Erk1/2, HUVEC)” value was at least 50 % activity at 10 nM.

Regarding B11, the “pERK Assay Results (AlphaLISA p-Erk1/2, HUVEC)” value is at least 50 % activity at 100 nM.

Turning to B12, the “pERK Assay Results (AlphaLISA p-Erk1/2, HUVEC)” value was at least 50 % activity at 100 nM.

Regarding B13, the “pERK Assay Results (AlphaLISA p-Erk1/2, HUVEC)” value was at least 50 % activity at 10 nM.

As to B14, the “pERK Assay Results (AlphaLISA p-Erk1/2, HUVEC)” value was at least 50 % activity at 10 nM.

Regarding B15, the “pERK Assay Results (AlphaLISA p-Erk1/2, HUVEC)” value is at least 50 % activity at 100 nM.

On to B16, for which the “pERK Assay Results (AlphaLISA p-Erk1/2, HUVEC)” value was at least 50 % activity at 10 nM.

In the case of B17, the “pERK Assay Results (AlphaLISA p-Erk1/2, HUVEC)” value was at least 50 % activity at 100 nM.

Regarding B18, the “pERK Assay Results (AlphaLISA p-Erk1/2, HUVEC)” value was at least 50 % activity at 5 nM.

On to B19, for which the “pERK Assay Results (AlphaLISA p-Erk1/2, HUVEC)” value is at least 50 % activity at 10 nM.

Take B20: the “pERK Assay Results (AlphaLISA p-Erk1/2, HUVEC)” value is at least 50 % activity at 100 nM.

B21: the “pERK Assay Results (AlphaLISA p-Erk1/2, HUVEC)” value is at least 50 % activity at 10 nM.

On to B22, for which the “pERK Assay Results (AlphaLISA p-Erk1/2, HUVEC)” value was at least 50 % activity at 20 nM.

Take B23: the “pERK Assay Results (AlphaLISA p-Erk1/2, HUVEC)” value was at least 50 % activity at 20 nM.

For B24, the “pERK Assay Results (AlphaLISA p-Erk1/2, HUVEC)” value is at least 50 % activity at 20 nM.

As to B25, the “pERK Assay Results (AlphaLISA p-Erk1/2, HUVEC)” value is at least 50 % activity at 20 nM.

In the case of B26, the “pERK Assay Results (AlphaLISA p-Erk1/2, HUVEC)” value is at least 50 % activity at 5 nM.

As to B27, the “pERK Assay Results (AlphaLISA p-Erk1/2, HUVEC)” value is at least 50 % activity at 20 nM.

As to B28, the “pERK Assay Results (AlphaLISA p-Erk1/2, HUVEC)” value was at least 50 % activity at 10 nM.
